Paper PMC12011707
Numbering of substitutions follows the chain as printed.

B1: wildtype FGF10 (38-208) (ligand)
chain: QALGQDMVSPEATNSSSSSFSSPSSAGRHVRSYNHLQGDVRWRKLFSFTKYFLKIEKNGKVSGTKKENCPYSILEITSVEIGVVAVKAINSNYYLAMNKKGKLYGSKEFNNDCKLKERIEENGYNTYASFNWQHNGRQMYVALNGKGAPRRGQKTRRKNTSAHFLPMVVHS
B2: FGF10-STAB2 (ligand)
chain: B1 chain with W42I, K50G, K57P, N92G, Q133R, R150V
B3: FGF10-STAB3 (ligand)
chain: B1 chain with W42I, K50G, K57P, N92G, Q133R, R150E

Target: human extracellular domain of FGFR2b fused with the Fc domain of IgG1 (human)
Experiment: BLI; Octet K2; FGFR extracellular domain-Fc immobilised on a protein A biosensor; FGF10 variants in PBS, 31.25 to 250 nM (told for FGFR2b-Fc); association and dissociation 300 s each; KD from fitted saturation binding curves

Binder	Kd [nM]
B1	764
B2	996
B3	913
